According to US20250197488A1 (MABWELL SHANGHAI BIOSCIENCE, published 2025):

T1: IL-11 (Cat. 12225-HNCE, Sino Biological Inc.) (UniProt P20809 22-199, limits assumed)
T1 sequence (looked up): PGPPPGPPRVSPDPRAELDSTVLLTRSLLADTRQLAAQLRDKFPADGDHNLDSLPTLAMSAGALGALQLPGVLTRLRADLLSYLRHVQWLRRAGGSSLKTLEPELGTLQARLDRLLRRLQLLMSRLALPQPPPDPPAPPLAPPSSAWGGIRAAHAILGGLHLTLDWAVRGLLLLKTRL

T2: human IL-11 (AAH12506.1, Pro22-Leu199) (human, UniProt P20809 22-199)
T2 construct: The range Pro22-Leu199 counts on AAH12506.1; The Octet runs say only 'human IL-11'; also called hIL-11
T2 chain: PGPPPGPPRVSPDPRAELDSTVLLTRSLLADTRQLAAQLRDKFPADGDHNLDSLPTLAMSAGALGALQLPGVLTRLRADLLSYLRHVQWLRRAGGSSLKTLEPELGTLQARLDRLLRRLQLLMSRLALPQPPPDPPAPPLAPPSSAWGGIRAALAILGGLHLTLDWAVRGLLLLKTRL

T3: mIL11
T3 construct: also called murine IL-11 (NP_032376.1, Pro22-Leu199)
T3 cytokine chain: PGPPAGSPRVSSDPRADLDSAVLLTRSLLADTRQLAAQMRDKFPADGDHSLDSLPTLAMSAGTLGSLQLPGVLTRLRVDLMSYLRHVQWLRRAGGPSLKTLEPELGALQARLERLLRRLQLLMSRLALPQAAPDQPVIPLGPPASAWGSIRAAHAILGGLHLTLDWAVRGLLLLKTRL


Key:
[1] = biological target: T1, IL-11 (Cat. 12225-HNCE, Sino Biological …); assay: cell-based or functional assay
[2] = biological target: T2, human IL-11 (AAH12506.1, Pro22-Leu199); assay: BLI (Octet), antibody on AHC probe, human IL-11 in solution
Protocol: (§1) When the hybridoma cells were cultured to a certain number, culture supernatants were collected and purified using Protein G affinity chromatography to obtain murine hybridoma antibodies (Hy5C2, Hy8C8, Hy16B5, Hy18A10, Hy18H10, Hy23G6 and Hy29C11). The affinity of the murine antibodies purified from the hybridoma supernatants was determined using an Octet QKe System instrument from Fortebio Inc. with an anti-mouse IgG Fc Capture biosensor to capture the Fc fragments of the antibodies, for which an anti-IL-11 antibody named “3C6-mFc” recombinantly expressed was used at the same concentration as a positive control. Specifically, a hybridoma supernatant was diluted with HBS-EP+ buffer (GE), and was allowed to pass through the surface of AMC probes (Cat: 18-5088, PALL), and so the antibody in the hybridoma supernatant was captured on the surface of the probes; then, human IL-11 diluted in the HBS-EP+ buffer (300 nM) was used as a mobile phase to react with the antibody captured on the surface of the probes. Both the binding and the dissociating were conducted for 300 seconds. When the experiment was finished, data from which response values of blank controls had been deducted was fitted using a 1:1 Langmuir binding model by software, and then kinetic constants for antigen-antibody binding were calculated. Binding signals were detected on the Octet QKe System instrument with Hy5C2, Hy8C8, Hy16B5, Hy18A10, and Hy18H10.
(§2) The affinity of hz18A10 and hz8C8 was determined according to the method provided in Example 1 using AHC bioprobes for capturing human Fc fragment instead, with other conditions unchanged. A recombinantly expressed anti-IL-11 antibody 3C6-hFc was used at the same concentration as a positive control.

[3] = biological target: T1, IL-11 (Cat. 12225-HNCE, Sino Biological …); assay: competition ELISA, IL-11/IL-11Rα/GP130 complex
In short: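 Plates coated overnight with IL-11Rα-His (Met1-Val363, C-terminal 6-His); antibody samples co-incubated to compete for IL-11/IL-11Rα/GP130 complex formation. Bound complex detected colorimetrically with HRP-conjugated anti-human Fc secondary antibody. Humanized and affinity-matured mutants carried human IgG1 constant regions.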

[4] = biological target: T2, human IL-11 (AAH12506.1, Pro22-Leu199); assay: BLI (Octet), antibody captured, human IL-11 in solution
In short: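 Murine antibodies from hybridoma supernatants in HBS-EP+ captured on anti-mouse IgG Fc biosensors; human IL-11 (300 nM) as analyte, 300 s association and 300 s dissociation. Blank-subtracted data fitted to 1:1 Langmuir model for kinetic constants. Humanized and mutant antibodies (human IgG1) captured on anti-human Fc probes, otherwise unchanged.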

[5] = biological target: T2, human IL-11 (AAH12506.1, Pro22-Leu199); assay: BLI (Octet), antibody on AHC probe, human IL-11 in solution
Protocol: as §1, §2

[6] = biological target: T2, human IL-11 (AAH12506.1, Pro22-Leu199); assay: BLI (Octet QKe), antibody on anti-mouse Fc probe, human IL-11 300 nM
Protocol: as §1

[7] = biological target: T3, mIL11; assay: direct ELISA, hybridoma supernatant on plate-immobilised murine IL-11, OD450
Text: Murine anti-IL-11 hybridoma monoclones 5C2, 8C8, 16B5, 18A10, 18H10, 23G6 and 29C11 were obtained by murine hybridoma technology. The binding activity of the supernatants of those clones to human IL-11 (AAH12506.1, Pro22-Leu199; SEQ ID NO.128) and murine IL-11 (NP_032376.1, Pro22-Leu199; SEQ ID NO.129) immobilized on the surface of ELISA plates was detected via direct ELISA.

[8] = biological target: T1, IL-11 (Cat. 12225-HNCE, Sino Biological …); assay: competition ELISA: IL-11Rα-His coated, IL-11 + antibody + gp130-Fc
Protocol: The activity of the recombinant murine anti-IL-11 antibodies for blocking the formation of IL-11/IL-11Rα/GP130 complex was analyzed via competition ELISA. IL-11Rα-His (NP_004503.1, Met1-Val363, C-terminus-6-His Tag) was firstly added into ELISA plates to be coated overnight. Next day, samples were prepared as follows. […] After co-incubating and washing, an HRP conjugated anti-human Fc secondary antibody was added to develop the color which was then detected.

| Binder | Blocking activity (IC50), STAT3-luc reporter [1] [µg/mL] | IC50 [3] [µg/mL] | Kd [6] [nM] | koff [6] [s⁻¹] | kon [6] [M⁻¹ s⁻¹] | IC50 [8] [µg/mL] | further results |
| --- | --- | --- | --- | --- | --- | --- | --- |
| hz8C8 (antibody, human IgG1, kappa, V domains shown, humanized, human constant regions; also called hz8C8-VH + hz8C8-VL; parent antibody hz8C8) VH: EVQLVESGGGLVQPGGSLRLSCAASGFTFSSFGMHWVRQAPGKGLEWVAYITSGSNTIYYADTVKGRFTISRDNAKNSLYLQMNSLRAEDTAVYYCAREYYSYDEGFAYWGQGTLVTVSS VL: EIVLTQSPATLSLSPGERATLSCSVSSSISSNYLHWYQQKPGQAPRLLIYRTSNLASGIPARFSGSGSGTDFTLTISSLEPEDFAVYYCQQGVDVPFTFGQGTKLEIKR | 2.04 | 2.56 | – | – | – | – | Kd [2]: 1.6 nM; koff [2]: 0.00134 s⁻¹; kon [2]: 836000 M⁻¹ s⁻¹ |
| hz8C8-VHm6 + hz8C8-VLm7 (antibody, human IgG1, kappa, V domains shown, human IgG1 constant regions) VH: EVQLVESGGGLVQPGGSLRLSCAASGFTFSSFGMHWVRQAPGKGLEWVAYITPGSSTIYYADTVKGRFTISRDNAKNSLYLQMNSLRAEDTAVYYCAREYYSYDEGFAYWGQGTLVTVSS VL: EIVLTQSPATLSLSPGERATLSCSVSDLIPSQYLHWYQQKPGQAPRLLIYRTSNLASGIPARFSGSGSGTDFTLTISSLEPEDFAVYYCQQGVDVPFTFGQGTKLEIKR | 0.066 | 0.54 | – | – | – | – | Kd [4]: 0.156 nM; koff [4]: 0.000127 s⁻¹; kon [4]: 812000 M⁻¹ s⁻¹ |
| hz18A10 (antibody, human IgG1, kappa, V domains shown, humanized, human constant regions; also called hz18A10-VH + hz18A10-VL; parent antibody hz18A10) VH: EVQLVQSGAEVKKPGASVKVSCKASGYTFTTYNMDWVRQAPGQGLEWMGTIYPGNGDTSYNQKFKGRVTMTRDTSTSTVYMELSSLRSEDTAVYYCARGDLYALDYWGQGTLVTVSS VL: DIQMTQSPSSLSASVGDRVTITCKASQSVSNDVAWYQQKPGKAPKLLIYSASNRYTGVPSRFSGSGSGTDFTFTISSLQPEDIATYYCQHDYSSPYTFGQGTKLEIKR | 18.5 | – | – | – | – | – | Kd [5]: 3.21 nM; koff [5]: 0.00249 s⁻¹; kon [5]: 773000 M⁻¹ s⁻¹ |
| 3C6-hFc (antibody, human IgG1, kappa, human IgG1 constant regions; also called positive control antibody; hz3C6) heavy: not shown light: DIVLTQSPASLALSPGERATLSCRASKSVSTSGYSYIHWYQQKPGQAPRLLIYLASNLDSGVPARFSGSGSGTDFTLTISSLEEEDFATYYCQHSRDLPPTFGQGTKLEIKRTVAAPSVFIFPPSDEQLKSGTASVVCLLNNFYPREAKVQWKVDNALQSGNSQESVTEQDSKDSTYSLSSTLTLSKADYEKHKVYACEVTHQGLSSPVTKSFNRGEC | 0.342 | 1.9 | – | – | – | – | Kd [5]: 0.712 nM; koff [5]: 0.000581 s⁻¹; kon [5]: 816000 M⁻¹ s⁻¹; Kd [2]: 0.712 nM; koff [2]: 0.000581 s⁻¹; kon [2]: 816000 M⁻¹ s⁻¹ |
| Hy8C8 (antibody, V domains shown, murine hybridoma antibody) VH: DVQLVESGGGLVQPGGSRKLSCAASGFTFSSFGMHWVRQSPERGLEWVAYITSGSNTIYYADTVKGRFTISRDNPENTLFLQMTSLRSEDTAMYYCAREYYSYDEGFAYWGQGTLVTVSA VL: EIVLTQSPTTMAASPGEKITITCSVSSSISSNYLHWYQQKPGFSPKLLIYRTSNLASGVPARFSGSGSGTSHSLTIDTMEAEDVATYYCQQGVDVPFTFGSGTKLEIKR | – | – | 1.3 | 0.00204 | 1.51e+06 | – | binding result [7]: binds |
| Hy18A10 (antibody, V domains shown, murine hybridoma antibody) VH: QVQLQQPGAELVKPGASVKMSCKASGYKFITYNMDWVKQTPGQGLEWIGTIYPGNGDTSYNQKFKGKATLTADKSSSTAYMQLSSLTSEDSAVYYCARGDLYALDYWGQGTSVTVSS VL: SIVMTQTPKFLLVSAGDRVTITCKASQSVSNDVAWYQQKPGQSPKLLIYSASNRYTGVPDRFTGSGYGTDFTFTINTVQAEDLAVYFCQHDYSSPYTFGGGTKLEIKR | – | – | 1.09 | 0.00187 | 1.71e+06 | – | binding result [7]: binds |
| 3C6-mFc (antibody, mouse IgG1, murine IgG1 constant regions; also called positive control anti-IL-11 antibody) heavy: EVQLVQSGAEVKKPGASVKISCKASGYTFTDYNMDWVKQAPGQRLEWIGDINPHNGGPIYNQKFTGRATLTVDKSASTAYMELSSLRSEDTAVYYCARGELGHWYFDVWGQGTTVTVSSAKTTPPSVYPLAPGSAAQTNSMVTLGCLVKGYFPEPVTVTWNSGSLSSGVHTFPAVLQSDLYTLSSSVTVPSSTWPSETVTCNVAHPASSTKVDKKIVPRDCGCKPCICTVPEVSSVFIFPPKPKDVLTITLTPKVTCVVVDISKDDPEVQFSWFVDDVEVHTAQTQPREEQFNSTFRSVSELPIMHQDWLNGKEFKCRVNSAAFPAPIEKTISKTKGRPKAPQVYTIPPPKEQMAKDKVSLTCMITDFFPEDITVEWQWNGQPAENYKNTQPIMDTDGSYFVYSKLNVQKSNWEAGNTFTCSVLHEGLHNHHTEKSLSHSPGK light: DIVLTQSPASLALSPGERATLSCRASKSVSTSGYSYIHWYQQKPGQAPRLLIYLASNLDSGVPARFSGSGSGTDFTLTISSLEEEDFATYYCQHSRDLPPTFGQGTKLEIKRTVAAPTVSIFPPSSEQLTSGGASVVCFLNNFYPKDINVKWKIDGSERQNGVLNSWTDQDSKDSTYSMSSTLTLTKDEYERHNSYTCEATHKTSTSPIVKSFNRNEC | – | – | 0.712 | 0.000581 | 816000 | 2.1 | – |
| mu8C8 (antibody, V domains shown, also called recombinant murine antibody 8C8) VH: DVQLVESGGGLVQPGGSRKLSCAASGFTFSSFGMHWVRQSPERGLEWVAYITSGSNTIYYADTVKGRFTISRDNPENTLFLQMTSLRSEDTAMYYCAREYYSYDEGFAYWGQGTLVTVSA VL: EIVLTQSPTTMAASPGEKITITCSVSSSISSNYLHWYQQKPGFSPKLLIYRTSNLASGVPARFSGSGSGTSHSLTIDTMEAEDVATYYCQQGVDVPFTFGSGTKLEIKR | – | – | – | – | – | 1.61 | – |
| mu18A10 (antibody, V domains shown, also called recombinant murine antibody 18A10) VH: QVQLQQPGAELVKPGASVKMSCKASGYKFITYNMDWVKQTPGQGLEWIGTIYPGNGDTSYNQKFKGKATLTADKSSSTAYMQLSSLTSEDSAVYYCARGDLYALDYWGQGTSVTVSS VL: SIVMTQTPKFLLVSAGDRVTITCKASQSVSNDVAWYQQKPGQSPKLLIYSASNRYTGVPDRFTGSGYGTDFTFTINTVQAEDLAVYFCQHDYSSPYTFGGGTKLEIKR | – | – | – | – | – | 1.4 | – |
